How the values were obtained:
[1] = molecular target: nSh[change], Spike without transmembrane and cytoplasmic domains, with histidine tag (SARS coronavirus (Frankfurt isolate)) (UniProt P59594); assay: self-association; western blot of cell lysate
[2] = molecular target: nSh[change], Spike without transmembrane and cytoplasmic domains, with histidine tag (SARS coronavirus (Frankfurt isolate)) (UniProt P59594); assay: self-association; non-heated SDS-PAGE and western blot

“nSh[change], Spike without transmembrane and cytoplasmic domains, with histidine tag (from UniProt P59594 14-1195)” showed a frequency of monomeric form [1] of 90%, a frequency of oligomeric form [1] of 10% and an efficiency of oligomerization [2] of less than 10%.

From patent US20060257852A1 (priority 2003, published 2006)
